B1: Proliferation-associated protein 2G4 (Homo sapiens), Q9UQ80 (parent)
chain: MSGEDEQQEQTIAEDLVVTKYKMGGDIANRVLRSLVEASSSGVSVLSLCEKGDAMIMEETGKIFKKEKEMKKGIAFPTSISVNNCVCHFSPLKSDQDYILKEGDLVKIDLGVHVDGFIANVAHTFVVDVAQGTQVTGRKADVIKAAHLCAEAALRLVKPGNQNTQVTEAWNKVAHSFNCTPIEGMLSHQLKQHVIDGEKTIIQNPTDQQKKDHEKAEFEVHEVYAVDVLVSSGEGKAKDAGQRTTIYKRDPSKQYGLKMKTSRAFFSEVERRFDAMPFTLRAFEDEKKARMGVVECAKHELLQPFNVLYEKEGEFVAQFKFTVLLMPNGPMRITSGPFEPDLYKSEMEVQDAELKALLQSSASRKTQKKKKKKASKTAENATSGETLEENEAGD

Variants of: B1
Conditions: with erbb3_rat Erbb3, Q62799
erbb3_rat Erbb3, Q62799, sequence (Q62799 whole entry): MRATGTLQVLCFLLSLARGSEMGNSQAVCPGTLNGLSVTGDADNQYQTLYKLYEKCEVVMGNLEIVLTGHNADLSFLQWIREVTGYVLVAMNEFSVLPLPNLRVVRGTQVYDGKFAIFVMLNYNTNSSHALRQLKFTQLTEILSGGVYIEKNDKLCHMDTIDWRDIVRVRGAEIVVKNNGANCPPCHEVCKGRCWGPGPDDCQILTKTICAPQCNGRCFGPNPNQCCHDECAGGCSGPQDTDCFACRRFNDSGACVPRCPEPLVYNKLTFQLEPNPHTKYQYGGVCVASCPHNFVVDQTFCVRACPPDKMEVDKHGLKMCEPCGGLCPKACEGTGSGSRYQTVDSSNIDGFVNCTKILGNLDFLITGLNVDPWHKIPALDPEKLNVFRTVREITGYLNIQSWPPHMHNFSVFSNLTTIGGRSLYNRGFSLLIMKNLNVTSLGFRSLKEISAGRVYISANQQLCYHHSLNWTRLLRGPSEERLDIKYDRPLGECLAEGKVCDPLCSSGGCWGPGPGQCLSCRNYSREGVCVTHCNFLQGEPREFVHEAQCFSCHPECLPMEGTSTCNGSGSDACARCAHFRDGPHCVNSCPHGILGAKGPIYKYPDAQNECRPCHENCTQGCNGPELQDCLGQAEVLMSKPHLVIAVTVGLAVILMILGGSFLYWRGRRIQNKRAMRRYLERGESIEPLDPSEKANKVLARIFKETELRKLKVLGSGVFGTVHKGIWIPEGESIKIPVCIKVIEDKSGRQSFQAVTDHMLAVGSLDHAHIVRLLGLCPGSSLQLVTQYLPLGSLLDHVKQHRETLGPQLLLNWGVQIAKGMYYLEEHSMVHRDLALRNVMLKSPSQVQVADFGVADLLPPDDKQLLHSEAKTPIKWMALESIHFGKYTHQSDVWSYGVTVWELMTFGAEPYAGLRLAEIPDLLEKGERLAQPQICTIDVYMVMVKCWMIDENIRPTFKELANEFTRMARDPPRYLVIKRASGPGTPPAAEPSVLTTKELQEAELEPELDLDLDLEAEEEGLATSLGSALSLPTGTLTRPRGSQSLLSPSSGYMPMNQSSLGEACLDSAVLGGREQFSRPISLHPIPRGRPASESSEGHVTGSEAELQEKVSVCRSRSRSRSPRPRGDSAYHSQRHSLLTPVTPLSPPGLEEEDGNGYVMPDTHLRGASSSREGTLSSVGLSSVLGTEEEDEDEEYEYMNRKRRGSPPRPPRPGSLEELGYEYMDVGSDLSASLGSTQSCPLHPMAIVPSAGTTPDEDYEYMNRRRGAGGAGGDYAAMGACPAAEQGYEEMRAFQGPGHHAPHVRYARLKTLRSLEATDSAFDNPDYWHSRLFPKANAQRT

| Variant | effect of a mutation on the interaction |
| --- | --- |
| S360A | disrupting interaction strength |
